Results from PMC10397247.

Assays:
P8A-bP = target: T1, P8A-bP; assay: two-hybrid library CCNG1;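 also: natural log of median RNA to DNA barcode read ratio; higher means stronger binding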
T1 chain: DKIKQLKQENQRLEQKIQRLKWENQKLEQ

P7A-bP = target: T2, P7A-bP; assay: two-hybrid library CCNG1;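 also: natural log of median RNA to DNA barcode read ratio; higher means stronger binding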
T2 chain: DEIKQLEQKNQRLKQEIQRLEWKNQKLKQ

P9A-bP = target: T3, P9A-bP; assay: two-hybrid library CCNG1;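 also: natural log of median RNA to DNA barcode read ratio; higher means stronger binding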
T3 chain: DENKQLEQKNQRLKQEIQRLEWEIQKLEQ

4H319-bN = target: T4, 4H319-bN; assay: two-hybrid library CCNG1;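 also: natural log of median RNA to DNA barcode read ratio; higher means stronger binding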
T4 chain: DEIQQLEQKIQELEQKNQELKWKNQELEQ

4H2717-bN = target: T5, 4H2717-bN; assay: two-hybrid library CCNG1;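 also: natural log of median RNA to DNA barcode read ratio; higher means stronger binding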
T5 chain: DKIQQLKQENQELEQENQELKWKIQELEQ

4H3057-bN = target: T6, 4H3057-bN; assay: two-hybrid library CCNG1;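 also: natural log of median RNA to DNA barcode read ratio; higher means stronger binding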
T6 chain: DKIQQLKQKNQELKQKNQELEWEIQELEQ

4H741-bN = target: T7, 4H741-bN; assay: two-hybrid library CCNG1
T7 chain: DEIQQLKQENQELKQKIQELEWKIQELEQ

4H40-bN = target: T8, 4H40-bN; assay: two-hybrid library CCNG1
T8 chain: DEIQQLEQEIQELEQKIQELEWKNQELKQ

4H3277-bN = target: T9, 4H3277-bN; assay: two-hybrid library CCNG1
T9 chain: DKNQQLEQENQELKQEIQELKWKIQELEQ

4H918-bH = target: T10, 4H918-bH; assay: two-hybrid library CCNG1
T10 chain: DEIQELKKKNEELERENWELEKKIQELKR

4H477-bN = target: T11, 4H477-bN; assay: two-hybrid library CCNG1
T11 chain: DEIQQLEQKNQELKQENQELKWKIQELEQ

4H492-bN = target: T12, 4H492-bN; assay: two-hybrid library CCNG1
T12 chain: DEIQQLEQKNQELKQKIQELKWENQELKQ

4H348-bN = target: T13, 4H348-bN; assay: two-hybrid library CCNG1
T13 chain: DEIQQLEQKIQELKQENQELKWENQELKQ

4H2839-bN = target: T14, 4H2839-bN; assay: two-hybrid library CCNG1
T14 chain: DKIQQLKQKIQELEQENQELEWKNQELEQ

4H2915-bN = target: T15, 4H2915-bN; assay: two-hybrid library CCNG1
T15 chain: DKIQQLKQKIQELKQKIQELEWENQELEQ

4H2692-bN = target: T16, 4H2692-bN; assay: two-hybrid library CCNG1
T16 chain: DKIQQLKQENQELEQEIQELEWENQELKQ

P7mS = target: T17, P7mS; assay: two-hybrid library CC1; conditions: mean of both orientations
T17 chain: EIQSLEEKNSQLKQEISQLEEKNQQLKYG

P8 = target: T18, P8; assay: two-hybrid library CC1; conditions: mean of both orientations
T18 chain: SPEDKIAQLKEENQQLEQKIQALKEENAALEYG

P6SC1 = target: T19, P6SC1; assay: two-hybrid library CC1; conditions: mean of both orientations
T19 chain: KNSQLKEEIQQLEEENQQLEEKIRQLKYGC

P6 = target: T20, P6; assay: two-hybrid library CC1; conditions: mean of both orientations
T20 chain: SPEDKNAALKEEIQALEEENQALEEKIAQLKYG

P5mS = target: T21, P5mS; assay: two-hybrid library CC1; conditions: mean of both orientations
T21 chain: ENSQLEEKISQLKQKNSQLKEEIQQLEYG

P8mS = target: T22, P8mS; assay: two-hybrid library CC1; conditions: mean of both orientations
T22 chain: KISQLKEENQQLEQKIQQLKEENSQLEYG

P6mS = target: T23, P6mS; assay: two-hybrid library CC1; conditions: mean of both orientations
T23 chain: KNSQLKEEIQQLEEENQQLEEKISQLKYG

P9 = target: T24, P9; assay: two-hybrid library CC1; conditions: mean of both orientations
T24 chain: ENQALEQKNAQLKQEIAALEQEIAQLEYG

P7 = target: T25, P7; assay: two-hybrid library CC1; conditions: mean of both orientations
T25 chain: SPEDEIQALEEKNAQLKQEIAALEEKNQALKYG

P5SC2 = target: T26, P5SC2; assay: two-hybrid library CC1
T26 chain: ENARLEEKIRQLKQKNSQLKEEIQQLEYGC

P6SC2 = target: T27, P6SC2; assay: two-hybrid library CC1; conditions: mean of both orientations
T27 chain: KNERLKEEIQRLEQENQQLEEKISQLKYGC

O7-bP = target: T28, O7-bP; assay: two-hybrid library CCNG1
T28 chain: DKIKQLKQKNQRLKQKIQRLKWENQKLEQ

O6-bP = target: T29, O6-bP; assay: two-hybrid library CCNG1
T29 chain: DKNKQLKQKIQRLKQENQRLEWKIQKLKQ

O9-bP = target: T30, O9-bP; assay: two-hybrid library CCNG1
T30 chain: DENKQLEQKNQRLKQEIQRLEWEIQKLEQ

O5-bP = target: T31, O5-bP; assay: two-hybrid library CCNG1
T31 chain: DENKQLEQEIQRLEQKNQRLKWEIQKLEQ

O3-bP = target: T32, O3-bP; assay: two-hybrid library CCNG1
T32 chain: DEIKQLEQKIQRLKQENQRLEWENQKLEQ

O8-bP = target: T33, O8-bP; assay: two-hybrid library CCNG1
T33 chain: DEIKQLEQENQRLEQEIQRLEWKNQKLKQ

O4-bP = target: T34, O4-bP; assay: two-hybrid library CCNG1
T34 chain: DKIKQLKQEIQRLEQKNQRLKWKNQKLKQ

P9bH1 = target: T35, P9bH1; assay: two-hybrid library CCNG1
T35 chain: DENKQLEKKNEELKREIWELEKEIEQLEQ

P8bH1 = target: T36, P8bH1; assay: two-hybrid library CCNG1
T36 chain: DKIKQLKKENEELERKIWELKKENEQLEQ

P7bH1 = target: T37, P7bH1; assay: two-hybrid library CCNG1
T37 chain: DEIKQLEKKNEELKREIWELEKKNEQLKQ

DEIKQLEQKNQRLKQEIQRLEWKNQKLKQ [P7A-bP]
interaction score (P8A-bP): 1.1 | interaction score (P7A-bP): -1.33 | interaction score (P9A-bP): -0.571

DKIQQLKQENQELEQEIQELEWENQELKQ [4H2692-bN]
interaction score (4H319-bN): -0.482 | interaction score (4H2717-bN): -0.423 | interaction score (4H3057-bN): 0.294 | interaction score (4H741-bN): -0.795 | interaction score (4H40-bN): -0.333 | interaction score (4H3277-bN): -0.49 | interaction score (4H918-bH): 1.17 | interaction score (4H477-bN): -0.405 | interaction score (4H492-bN): 1.22 | interaction score (4H348-bN): 0.502 | interaction score (4H2839-bN): -0.832 | interaction score (4H2915-bN): -0.419 | interaction score (4H2692-bN): 0.234

ENARLEEKIRQLKQKNSQLKEEIQQLEYGC [P5SC2]
interaction score (P7mS): -2.77 | interaction score (P8): -1.1 | interaction score (P6SC1): 0.316 | interaction score (P6): 0.225 | interaction score (P5mS): -2.94 | interaction score (P8mS): -2.45 | interaction score (P6mS): 0.24 | interaction score (P9): -2.39 | interaction score (P7): -2.39 | interaction score (P5SC2): -2.86 | interaction score (P6SC2): 0.408

DEIKQLEQKIQRLKQENQRLEWENQKLEQ [O3-bP]
interaction score (O7-bP): -1.61 | interaction score (O6-bP): -0.828 | interaction score (O9-bP): -1.8 | interaction score (O5-bP): -1.53 | interaction score (O3-bP): -0.797 | interaction score (O8-bP): -0.905 | interaction score (O4-bP): 1.15

DEIKQLEKKNEELKREIWELEKKNEQLKQ [P7bH1]
interaction score (P9bH1): -0.3 | interaction score (P8bH1): 1.89 | interaction score (P7bH1): -0.0541
